Biological target: T1, CK8 recombinant protein (human cytokeratin 8, tag sequence included) (human, UniProt P05787 1-483)
T1 construct: Expressed in E. coli BL21(DE3) as inclusion bodies, dissolved in 8 M urea/PBS; also called KRT8 Keratin, type II cytoskeletal 8
T1 sequence (looked up): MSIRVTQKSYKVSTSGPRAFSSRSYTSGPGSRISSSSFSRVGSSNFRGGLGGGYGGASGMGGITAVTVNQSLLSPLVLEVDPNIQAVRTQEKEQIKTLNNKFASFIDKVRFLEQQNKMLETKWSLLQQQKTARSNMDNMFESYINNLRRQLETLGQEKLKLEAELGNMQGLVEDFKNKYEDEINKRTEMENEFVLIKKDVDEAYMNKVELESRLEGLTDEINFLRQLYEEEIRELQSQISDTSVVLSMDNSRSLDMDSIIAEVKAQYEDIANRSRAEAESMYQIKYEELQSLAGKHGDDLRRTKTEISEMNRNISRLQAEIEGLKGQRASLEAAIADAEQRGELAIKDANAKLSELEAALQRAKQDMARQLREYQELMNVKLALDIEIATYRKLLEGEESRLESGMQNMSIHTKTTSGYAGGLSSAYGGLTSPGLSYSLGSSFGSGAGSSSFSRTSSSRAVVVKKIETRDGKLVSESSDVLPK
Test: overlay of recombinant protein solution (50 µg/ml) on blotted partner protein, read out by TAB-K94 reactivity

binding result: binds
B1: CK18 recombinant protein (human cytokeratin 18, tag sequence included) (other, UniProt P05783 1-430, looked up, not shown: small tags and cut ends)
chain: MSFTTRSTFSTNYRSLGSVQAPSYGARPVSSAASVYAGAGGSGSRISVSRSTSFRGGMGSGGLATGIAGGLAGMGGIQNEKETMQSLNDRLASYLDRVRSLETENRRLESKIREHLEKKGPQVRDWSHYFKIIEDLRAQIFANTVDNARIVLQIDNARLAADDFRVKYETELAMRQSVENDIHGLRKVIDDTNITRLQLETEIEALKEELLFMKKNHEEEVKGLQAQIASSGLTVEVDAPKSQDLAKIMADIRAQYDELARKNREELDKYWSQQIEESTTVVTTQSAEVGAAETTLTELRRTVQSLEIDLDSMRNLKASLENSLREVEARYALQMEQLNGILLHLESELAQTRAEGQRQAQEYEALLNIKVKLEAEIATYRRLLEDGEDFNLGDALDSSNSMQTIQKTTTRRIVDGKVVSETNDTKVLRH
notes: Expressed in E. coli BL21(DE3) as inclusion bodies, dissolved in 8 M urea/PBS; also called KRT18 Keratin, type I cytoskeletal 18
